Assay [1] has as its target T1, soluble Tie2-Fc (fusion of the ectodomain of Tie-2 receptor and the Fc domain of human IgG1, R&D Inc) (human, UniProt Q02763 23-748).
T1 construct: Bought (R&D Inc) for the Biacore assay; human Tie2 would be UniProt Q02763; also called sTie2-Fc; T2; not shown: Fc domain of human IgG1 and any linker
Description: Biacore, Tie2-Fc immobilized on CM5 chip. Here is the method: (§1) FIGS. 10A-10D show in vitro binding assay between recombinant native Ang1, GCN4-Ang1/FD, CMP-Ang1/FD, or COMP-Ang1/FD and immobilized soluble Tie2-Fc using Biacore assay. Each recombinant protein was passed over a Biacore sensor chip that had extracellular domain of Tie2-Fc and Fc protein covalently coupled to it, followed by dissembling in absence of the recombinant proteins. Concentrations of the recombinant proteins are shown in each panel. Specificity of binding was assessed by subtracting Fc protein binding value from Tie2-Fc binding value during the measurement. Binding of the sensor chip is provided in resonance units (RUs).
(§2) Alternatively, to determine whether the COS-7 cell-derived recombinant proteins of native Ang1, GCN4/CC-Ang1/FD, CMP/CC-Ang1/FD and COMP/CC-Ang1/FD could bind to Tie-2 receptor, standard Biacore analysis was performed by BIA2000 (BIAcore, Inc.). Briefly, 600 ng of Tie-2-Fc receptor protein (R&D Inc), which is a fusion protein composed of the ectodomain of Tie-2 receptor and Fc domain of human IgG1, was immobilized on a Biacore chip (Sensor Chip CM5). As a control, 600 ng of Fc protein, which had only the Fc domain of human IgG1, was also immobilized on the same chip. The binding affinity was obtained by subtracting the response value using Fc protein from the values obtained using the Tie-2-Fc protein.
In general terms: SPR reads the build-up and loss of mass on a sensor chip optically.

In assay [2] the target is T1, soluble Tie2-Fc (fusion of the …). The experiment in a line: Biacore, Tie2-Fc immobilized on CM5 chip, Fc reference subtracted. How it is done:
as §1, §2

The target is the same in assay [3]. Description: protein-A pull-down with sTie2-Fc, anti-FLAG Western blot. How it is done: Twenty nanograms of each protein was incubated with 100 ng of sTie1-Fc or sTie2-Fc for […], and then, protein-A conjugated agarose beads were added. The precipitate was separated by 10% SDS-PAGE, and electro-blotted on to nitrocellulose membranes. The nitrocellulose membranes were Western blotted with anti-FLAG M1 antibody, washed, and incubated with horseradish peroxidase-conjugated secondary antibody. Signals were visualized by chemiluminescent detection according to the manufacturer's protocol (Amersham Pharmacia Biotech) and chemiluminescence scanner (LAS-1000, Fuji Film, Tokyo). CB, control buffer; PC, positive control of same amount of each recombinant protein without binding.
Twenty nanograms of each recombinant chimeric-Ang1 protein and 100 ng of soluble Tie1-Fc or soluble Tie2-Fc were incubated in 500 μl Tris-buffer solution (50 mM Tris, 100 mM NaCl, pH 7.4) containing 0.02% TritonX-100 at 4° C. for 2 hr. Then, 20 μl of protein-A agarose beads (Oncogene) was added and incubated for another 1 hr at 4° C. The protein-A conjugated samples were washed twice with 1 ml of Tris-buffer containing 0.02% TritonX-100. The samples were eluted with sample buffer, and heat-denatured. The samples were further separated by 10% SDS-PAGE, and electro-blotted on to nitrocellulose membranes, and Western blotted with anti-FLAG M1 antibody to detect the bound recombinant chimeric-Ang1, and further washed and incubated with horseradish peroxidase-conjugated secondary antibody. Signal was visualized by chemiluminescent detection according to the manufacturer's protocol (Amersham Pharmacia Biotech) using chemiluminescence scanner (LAS-1000, Fuji Film, Tokyo). Approximately 75%, 20%, 95% or 100% of native Ang1, GCN4-Ang1/FD, CMP-Ang1/FD, and COMP-Ang1/FD, respectively, bound to sTie2-Fc. In contrast, none of them bound to sTie1-Fc.
(In general: A western blot detects proteins with antibodies after separation by electrophoresis.)

The target of assay [4] is Tie2 receptor on human umbilical vein endothelial cells (HUVECs) (human, UniProt Q02763 23-1124). The experiment in a line: cell-based or functional assay.
Tie2 receptor on human umbilical vein endothelial cells (HUVECs), sequence (Q02763 23-1124): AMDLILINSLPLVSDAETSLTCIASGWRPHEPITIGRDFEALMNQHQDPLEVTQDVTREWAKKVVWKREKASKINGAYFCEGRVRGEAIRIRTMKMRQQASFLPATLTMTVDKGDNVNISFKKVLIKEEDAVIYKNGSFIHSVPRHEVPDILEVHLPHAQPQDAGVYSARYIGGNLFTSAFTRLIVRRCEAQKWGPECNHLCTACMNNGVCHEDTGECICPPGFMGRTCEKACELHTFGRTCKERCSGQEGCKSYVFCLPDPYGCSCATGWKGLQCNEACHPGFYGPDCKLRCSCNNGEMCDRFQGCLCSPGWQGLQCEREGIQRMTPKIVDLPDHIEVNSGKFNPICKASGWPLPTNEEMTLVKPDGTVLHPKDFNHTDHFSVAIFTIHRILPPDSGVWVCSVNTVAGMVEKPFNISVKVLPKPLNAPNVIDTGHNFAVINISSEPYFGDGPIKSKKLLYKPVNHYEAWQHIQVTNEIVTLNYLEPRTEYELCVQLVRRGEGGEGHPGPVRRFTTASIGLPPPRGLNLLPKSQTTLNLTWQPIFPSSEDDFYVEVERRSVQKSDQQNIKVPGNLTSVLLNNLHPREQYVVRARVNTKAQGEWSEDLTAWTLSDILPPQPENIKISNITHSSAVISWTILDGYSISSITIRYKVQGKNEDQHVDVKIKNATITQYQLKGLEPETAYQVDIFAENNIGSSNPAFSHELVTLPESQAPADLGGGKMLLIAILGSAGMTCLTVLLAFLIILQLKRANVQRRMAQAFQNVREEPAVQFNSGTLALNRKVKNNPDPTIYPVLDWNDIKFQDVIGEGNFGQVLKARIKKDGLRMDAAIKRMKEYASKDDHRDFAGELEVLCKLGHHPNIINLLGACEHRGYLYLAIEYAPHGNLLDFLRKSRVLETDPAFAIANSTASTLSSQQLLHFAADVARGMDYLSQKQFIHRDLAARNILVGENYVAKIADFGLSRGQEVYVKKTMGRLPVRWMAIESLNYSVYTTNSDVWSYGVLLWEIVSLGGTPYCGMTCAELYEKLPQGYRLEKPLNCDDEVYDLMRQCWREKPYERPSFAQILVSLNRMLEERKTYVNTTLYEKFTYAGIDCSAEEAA
In assay [5] the target is T1, soluble Tie2-Fc (fusion of the …). The experiment in a line: binding assay with soluble Tie2 (details not given).

T1 sequence (Q02763 23-748 limits assumed): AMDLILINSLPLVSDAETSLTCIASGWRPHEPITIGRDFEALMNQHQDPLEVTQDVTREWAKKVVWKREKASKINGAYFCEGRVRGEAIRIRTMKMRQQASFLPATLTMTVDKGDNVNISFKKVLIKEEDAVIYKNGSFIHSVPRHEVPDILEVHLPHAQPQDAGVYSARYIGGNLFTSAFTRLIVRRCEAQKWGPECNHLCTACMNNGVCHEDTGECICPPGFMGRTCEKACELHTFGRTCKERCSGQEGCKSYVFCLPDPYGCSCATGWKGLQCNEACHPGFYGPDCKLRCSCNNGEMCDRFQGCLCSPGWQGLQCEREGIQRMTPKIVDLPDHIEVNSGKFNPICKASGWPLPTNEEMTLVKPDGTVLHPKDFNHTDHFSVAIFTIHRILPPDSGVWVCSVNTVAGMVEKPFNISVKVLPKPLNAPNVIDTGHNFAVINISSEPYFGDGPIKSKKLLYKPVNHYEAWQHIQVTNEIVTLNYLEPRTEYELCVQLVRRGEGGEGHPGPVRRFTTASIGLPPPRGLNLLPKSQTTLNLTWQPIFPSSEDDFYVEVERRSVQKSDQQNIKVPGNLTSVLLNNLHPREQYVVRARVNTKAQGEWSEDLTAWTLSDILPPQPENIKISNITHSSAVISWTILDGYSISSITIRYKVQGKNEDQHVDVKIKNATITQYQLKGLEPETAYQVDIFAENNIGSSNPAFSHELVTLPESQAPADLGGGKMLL

B1: GCN4/CC-Ang1/FD (coiled-coil domain of GCN4 - fibrinogen domain of Ang1) (ligand)
chain: DYKDDDDKGILMKQLEDKVEELLSKNYHLENEVARLKKLVGEGSLVNLCTKEGVLLKGGKREEEKPFRDCADVYQAGFNKSGIYTIYINNMPEPKKVFCNMDVNGGGWTVIQHREDGSLDFQRGWKEYKMGFGNPSGEYWLGNEFIFAIYSQRQYMLRIELMDWEGNRAYSQYDRFHIGNEKQNYRLYLKGHTGYAGKQSSLILHGADFSTKDADNDNCMCKCALMLTGGWWFDACGPSNLNGMFYTAGQNHGKLNGIKWHYFKGPSYSLRSTTMMIRPLDF
notes: The end, 298, is worked out from bases 1-897 including the stop codon; ~80 kDa under non-reducing conditions; also called GCN4-Ang1/FD; G/CC-A1/FD
Turning to B1, in assay [1], the “concentration at which binding was saturated” value (from here on “concentration”) is roughly 30 nM. For the same molecule, the Kd (in general, the equilibrium constant for the complex coming apart) in assay [2] is 158 nM. Besides, the “percent of input protein bound” value in assay [3] is roughly 20%.

B2: CMP/CC-Ang1/FD (coiled-coil domain of CMP - fibrinogen domain of Ang1) (ligand)
chain: YKDDDDKGILDEDPCECKSIVKFQTKVEELINTLQQKLEAVAKRIEALENKIIGSLVNLCTKEGVLLKGGKREEEKPFRDCADVYQAGFNKSGIYTIYINNMPEPKKVFCNMDVNGGGWTVIQHREDGSLDFQRGWKEYKMGFGNPSGEYWLGNEFIFAIYSQRQYMLRIELMDWEGNRAYSQYDRFHIGNEKQNYRLYLKGHTGTAGKQSSLILHGADFSTKDADNDNCMCKCALMLTGGWWFDACGPSNLNGMFYTAGQNHGKLNGIKWHYFKGPSYSLRSTTMMIRPLDF
notes: The end, 310, is worked out from bases 1-933 including the stop codon; ~140 kDa and ~180 kDa were observed under non-reducing conditions; also called CMP-Ang1/FD; C/CC-A1/FD
For B2, the “Tie2 phosphorylation (ratio of phospho-Tie2 to Tie2, control buffer = 1)” value in assay [4] is roughly 4 fold. For the same molecule, the “concentration” value in assay [1] was roughly 30 nM. In addition, binding in assay [2] was characterised by a dissociation constant (Kd) of 67 nM. The “percent of input protein bound” value in assay [3] was roughly 95%.

B3: native Ang1 (recombinant FLAG-tagged human angiopoietin-1 with C-terminal Myc and His tags) (ligand)
chain: DYKDDDDKLRYNRIQHGQCAYTFILPEHDGNCRESTTDQYNTNALQRDAPHVEPDFSSQKLQHLEHVMENYTQWLQKLENYIVENMKSEMAQIQQNAVQNHTATMLEIGTSLLSQTAEQTRKLTDVETQVLNQTSRLEIQLLENSLSTYKLEKQLLQQTNEILKIHEKNSLLEHKILEMEGKHKEELDTLKEEKENLQGLVTRQTYIIQELEKQLNRATTNNSVLQKQQLELMDTVHNLVNLCTKEGVLLKGGKREEEKPFRDCADVYQAGFNKSGIYTIYINNMPEPKKVFCNMDVNGGGWTVIQHREDGSLDFQRGWKEYKMGFGNPSGEYWLGNEFIFAITSQRQYMLRIELMDWEGNRAYSQYDRFHIGNEKQNYRLYLKGHTGTAGKQSSLILHGADFSTKDADNDNCMCKCALMLTGGWWFDACGPSNLNGMFYTAGQNHGKLNGIKWHYFKGPSYSLRSTTMMIRPLDFDIQHSGGRSSLEGPRFEQKLISEEDLNMHTGHHHHHH
notes: Multimer of variable sizes under non-reducing conditions; Produced in COS-7 cells; also called nAng1
Regarding B3, the “Tie2 phosphorylation (ratio of phospho-Tie2 to Tie2, control buffer = 1)” value in assay [4] is roughly 3.6 fold. In addition, the “concentration” value in assay [1] is greater than 125 nM. In assay [2], this molecule returned a Kd of 7.5 nM. Further, the “percent of input protein bound” value in assay [3] was roughly 75%.

B4: Ang1/FD (truncated Ang1 that contains only the fibrinogen-like domain, amino acids 284-498) (ligand)
chain: RDCADVYQAGFNKSGIYTIYINNMPEPKKVFCNMDVNGGGWTVIQHREDGSLDFQRGWKEYKMGFGNPSGEYWLGNEFIFAIYSQRQYMLRIELMWEGNRAYSQYDRFHIGNEKQNYRLYLKGHTGYAGKQSSLILHGADFSTKDADNDNCMCKCALMLTGGWWFDACGPSNLNGMFYTAGQNHGKLNGIKWHYFKGPSYSLRSTTMMIRPLDF
notes: The range 284-498 is counted on Ang1, not on the entry; also called monomeric Ang1/FD; recombinant Ang1/FD
Regarding B4, the binding result in assay [5] is on record as “no binding”.

B5: COMP/CC-Ang1/FD (coiled-coil domain of COMP - fibrinogen domain of Ang1) (ligand)
chain: DYKDDDDKGILDLAPQMLRELQETNAALQDVRELLRQQVKEITFLKNTVMECDACGGSLVNLCTKEGVLLKGGKREEEKPFRDCADVYQAGFNKSGIYTIYINNMPEPKKVFCNMDVNGGGWTVIQHREDGSLDFQRGWKEYKMGFGNPSGEYWLGNEFIFAIYSQRQYMLRIELMDWEGNRAYSQYDRFHIGNEKQNYRLYLKGHTGTAGKQSSLILHGADFSTKDADNDNCMCKCALMLTGGWWFDACGPSNLNGMFYTAGQNHGKLNGIKWHYFKGPSYSLRSTTMMIRPLDF
notes: The end, 312, is worked out from the stated lengths: 16 signal + 8 FLAG + 3 + 45 COMP + 2 + 238 Ang1 Leu261-498; ~180 kDa and ~250 kDa were observed under non-reducing conditions; also called COMP-Ang1/FD; CO/CC-A1/FD
With B5, in assay [4], the “Tie2 phosphorylation (ratio of phospho-Tie2 to Tie2, control buffer = 1)” value is roughly 8.8 fold. For the same molecule, in assay [1], the “concentration” value is greater than 125 nM. For the same molecule, in assay [2], the Kd amounted to 20.5 nM. For the same molecule, in assay [3], the “percent of input protein bound” value is roughly 100%.

These data come from US20080160574A1 (KOREA ADVANCED INSTITUTE OF SCIENCE AND TECHNOLOGY KAIST, published 2008).
